Consider four molecules from US20190031771A1 (University of Pennsylvania, published 2019).

In experiment [1] the target is T1, hemagglutinin ectodomain of influenza virus H1/PR/8/34 (influenza virus H1/PR/8/34, UniProt P03452 18-528).
T1 construct: extracellular domain; also called HA H1/PR/8/34
The experiment is described as follows: immunoassay or flow cytometry. On the technique in general: Flow cytometry measures light scatter and fluorescence of single cells or particles in a stream.

The target of another experiment is T2, human ADAMTS13 (human, UniProt Q76LX8 75-1427).
T2 sequence (looked up): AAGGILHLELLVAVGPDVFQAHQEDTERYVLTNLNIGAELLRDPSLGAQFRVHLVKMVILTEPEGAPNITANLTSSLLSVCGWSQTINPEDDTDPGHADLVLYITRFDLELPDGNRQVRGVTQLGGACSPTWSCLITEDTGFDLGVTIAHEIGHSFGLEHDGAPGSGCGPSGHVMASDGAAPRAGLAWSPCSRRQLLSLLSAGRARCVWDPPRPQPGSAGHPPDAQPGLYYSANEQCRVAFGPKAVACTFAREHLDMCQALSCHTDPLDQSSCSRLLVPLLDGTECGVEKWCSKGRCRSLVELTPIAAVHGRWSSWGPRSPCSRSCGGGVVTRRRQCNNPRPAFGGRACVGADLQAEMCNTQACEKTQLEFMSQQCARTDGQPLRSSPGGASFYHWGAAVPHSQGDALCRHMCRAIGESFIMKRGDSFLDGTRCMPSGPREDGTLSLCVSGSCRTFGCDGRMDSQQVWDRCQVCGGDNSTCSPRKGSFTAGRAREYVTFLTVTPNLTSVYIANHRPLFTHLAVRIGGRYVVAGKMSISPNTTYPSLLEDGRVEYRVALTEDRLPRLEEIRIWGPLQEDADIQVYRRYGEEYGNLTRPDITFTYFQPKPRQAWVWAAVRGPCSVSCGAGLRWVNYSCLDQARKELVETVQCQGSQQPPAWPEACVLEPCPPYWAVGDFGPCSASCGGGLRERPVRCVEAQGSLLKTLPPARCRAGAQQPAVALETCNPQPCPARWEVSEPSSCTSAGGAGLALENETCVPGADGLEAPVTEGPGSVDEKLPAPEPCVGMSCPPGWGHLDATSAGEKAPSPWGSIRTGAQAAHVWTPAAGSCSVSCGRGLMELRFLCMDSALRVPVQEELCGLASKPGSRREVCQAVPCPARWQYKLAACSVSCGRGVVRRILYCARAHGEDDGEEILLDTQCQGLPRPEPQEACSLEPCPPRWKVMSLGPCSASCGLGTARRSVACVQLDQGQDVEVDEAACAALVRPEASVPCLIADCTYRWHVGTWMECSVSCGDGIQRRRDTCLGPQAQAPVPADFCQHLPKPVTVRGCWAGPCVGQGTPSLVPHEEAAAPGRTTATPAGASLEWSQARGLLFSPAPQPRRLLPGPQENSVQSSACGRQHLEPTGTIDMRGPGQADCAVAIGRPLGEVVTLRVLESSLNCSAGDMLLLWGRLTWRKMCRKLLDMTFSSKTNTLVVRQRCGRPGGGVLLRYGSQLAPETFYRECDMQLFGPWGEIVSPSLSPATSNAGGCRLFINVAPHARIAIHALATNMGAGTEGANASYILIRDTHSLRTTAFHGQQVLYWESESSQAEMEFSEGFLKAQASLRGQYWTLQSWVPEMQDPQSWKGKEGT
The experiment is described as follows: cell-based or functional assay.

T1 sequence (P03452 18-528): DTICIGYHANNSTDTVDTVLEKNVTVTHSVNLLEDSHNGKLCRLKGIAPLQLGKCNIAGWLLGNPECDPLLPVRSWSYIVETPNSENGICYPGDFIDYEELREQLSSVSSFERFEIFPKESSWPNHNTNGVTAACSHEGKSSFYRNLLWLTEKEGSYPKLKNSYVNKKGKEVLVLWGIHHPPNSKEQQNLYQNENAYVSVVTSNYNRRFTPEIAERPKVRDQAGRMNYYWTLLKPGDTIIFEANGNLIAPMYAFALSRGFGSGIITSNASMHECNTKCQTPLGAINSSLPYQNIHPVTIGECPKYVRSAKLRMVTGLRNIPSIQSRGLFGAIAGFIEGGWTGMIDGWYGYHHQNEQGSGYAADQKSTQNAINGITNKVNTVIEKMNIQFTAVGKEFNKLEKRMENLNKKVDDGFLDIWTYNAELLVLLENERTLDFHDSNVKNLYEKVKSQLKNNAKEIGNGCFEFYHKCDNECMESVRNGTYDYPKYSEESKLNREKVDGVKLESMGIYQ

B1: scFv 1-416 (scFv, V domains shown)
VH: QVQLVQSGAEVKKPGSSVRVSCTASGSNFSSHTINWVRQAPGQGLEWMGKVIPVLDISKHAQTFLGRVIITADKSTSTAYLELSSLRSEDTAIYYCAMDSVYGNFDFWGQGTLVTVSS
VL: ELVLTQPPSVSVSPGQTARITCSGDAFPKHYAYWYQQKPGQAPVLVIYKDTERPSGIPERFSGSSSGTTATLTISGVQAEDEADYYCQSTDSSDTWVFGAGTKVTVL
Consider B1, for which the binding result in experiment [1] is given as “no binding”. Moreover, in the experiment with human ADAMTS13, the “% ADAMTS13 activity in presence of scFv inhibitor (no rabbit IgG)” value stood at 20%.

B2: scFv 1-428 (scFv, V domains shown)
VH: EVQLVQSGAEVKKPGSSVKVSCKASGSNFSSHTINWVRQAPGHGLEWMGKIIPVLDISKDAETFLGRVVITADKSTSTAYMELSSLRSEDTAIYYCAMDSVYGNFDFWGQGTLVTVSS
VL: ELELTQPPSVSVSPGQTARITCSGDALPKQYAYWYQQKPGQAPVLVIYKDSERPSGIPERFSGSSSGTTVTLTISGVQAEDEADYYCQSADSSGTYEVFGGGTKLTVL
Regarding B2, the binding result in experiment [1] is listed as “no binding”. In addition, the “% ADAMTS13 activity in presence of scFv inhibitor (no rabbit IgG)” value with human ADAMTS13 was 7%.

B3: scFv 1-431 (scFv, V domains shown)
VH: QVQLVQSGAEVKKFGSSVKVSCKASGGTFSSYTMSWVRQAPGQGLEWMGSFVPILERANYAQGFQGRVTFTADKSTSTAYMELGSLRSEDTAVYYCARDLGDFGDSWGQGTLVTVSS
VL: ELELTQPPSVSVSPGQTARITCSGDALPKQYAYWYQQKPGQAPVLVIYKDSERPSGIPERFSGSSSGTTVTLTISGVQAEDEADYYCQSADSSGTYVFGGGTKLTVL
On to B3, for which the binding result in experiment [1] is recorded as “no binding”. Further, the “% ADAMTS13 activity in presence of scFv inhibitor (no rabbit IgG)” value with human ADAMTS13 amounted to 19%.

B4: scFv 1-420 (scFv, V domains shown)
VH: QVQLVQSGAEVKKPGSSVKVSCKASGGAFTMYTINWVRQAPGRGLEWMGRIIPILGITDYAQKFQGRGTITADKSTSTAYLELSGLTSEDTAVYYCAREFSGGNYFDFWGQGTLVTVSS
VL: ELELTQPPSVSISPGKTAKIFCGGNSIGRKSVHWYQQKPGQAPVLVVYDDSDRPSGIPERFSGSNSGNTATLTISRVEAGDEADYYCQVWDSSSDYVVFGGGTKLTVL
For the molecule B4, the binding result in experiment [1] is listed as “no binding”. The “% ADAMTS13 activity in presence of scFv inhibitor (no rabbit IgG)” value with human ADAMTS13 is 0%.
